In this test the target is Prebiotinylated FcγRI (Biotinylated Human CD64 Protein, His, Avitag) (human) (UniProt P12314). As to the kind of experiment: SPR; Biacore T200; biotinylated FcγRI immobilised on a streptavidin SA chip (F-chip); single-cycle kinetics, OPD injected at 90, 30, 10 nM, 120 s contact, 900 s dissociation; running buffer HBS-EP 1x pH 7.4; double-referenced; 1:1 Langmuir fit; mean ± SD, n = 3. Background: In SPR one partner is held on a chip, and binding of the other changes the refractive index at the surface.
Sequence of UniProt P12314 (P12314 16-292): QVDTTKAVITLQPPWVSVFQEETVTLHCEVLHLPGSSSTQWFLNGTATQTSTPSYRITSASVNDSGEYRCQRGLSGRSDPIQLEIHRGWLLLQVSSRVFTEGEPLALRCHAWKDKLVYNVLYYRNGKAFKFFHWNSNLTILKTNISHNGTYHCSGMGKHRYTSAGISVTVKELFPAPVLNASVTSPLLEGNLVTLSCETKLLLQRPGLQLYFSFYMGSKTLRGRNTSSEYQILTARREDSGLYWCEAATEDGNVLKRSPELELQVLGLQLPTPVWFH

A word on the Kd: it is a measure of binding affinity in units of concentration. A low value points to tighter binding. The koff is the rate constant with which the complex falls apart. Read a high koff as fast dissociation. A word on the kon: it is the second-order rate constant of association. A higher kon goes with fast association. In the case of nivolumab (antibody), the Kd was determined as 7.33 nM, the koff came out at 0.00093 s⁻¹ and the kon worked out at 127000 M⁻¹ s⁻¹.

For the origin of these results see publication PMC12809509.
